Experimental data as given in patent US20090042869.

Biological target: recombinant SF2/ASF (Protein One) (UniProt Q07955)
Sequence (Q07955 whole entry): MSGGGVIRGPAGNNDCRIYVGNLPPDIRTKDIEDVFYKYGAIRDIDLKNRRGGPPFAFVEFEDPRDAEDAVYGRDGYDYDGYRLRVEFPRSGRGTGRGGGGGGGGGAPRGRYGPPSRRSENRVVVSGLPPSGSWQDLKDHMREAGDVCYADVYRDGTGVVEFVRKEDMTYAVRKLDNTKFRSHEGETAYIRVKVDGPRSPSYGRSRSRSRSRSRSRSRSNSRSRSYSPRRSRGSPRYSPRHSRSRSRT

Clk1 (Cdc2-like kinase), endogenous, from human platelets, sequence (chain, as listed by the source): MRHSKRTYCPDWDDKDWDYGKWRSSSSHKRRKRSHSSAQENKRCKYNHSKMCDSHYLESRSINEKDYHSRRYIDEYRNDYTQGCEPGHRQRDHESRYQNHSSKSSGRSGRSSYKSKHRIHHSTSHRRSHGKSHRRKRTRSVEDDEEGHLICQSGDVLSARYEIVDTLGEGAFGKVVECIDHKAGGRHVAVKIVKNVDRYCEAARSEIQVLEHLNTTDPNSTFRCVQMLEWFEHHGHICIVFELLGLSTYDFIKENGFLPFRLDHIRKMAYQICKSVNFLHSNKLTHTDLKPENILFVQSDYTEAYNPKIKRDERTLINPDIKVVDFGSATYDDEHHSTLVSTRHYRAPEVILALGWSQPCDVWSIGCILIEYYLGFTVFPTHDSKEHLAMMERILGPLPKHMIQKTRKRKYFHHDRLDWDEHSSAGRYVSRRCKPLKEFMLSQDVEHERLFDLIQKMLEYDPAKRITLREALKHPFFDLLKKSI

Clk1 (Cdc2-like kinase), endogenous, from human platelets
SF2/ASF phosphorylation (immune complex kinase assay): Clk1 from activated platelets (grown on immobilized fibrinogen in the presence of thrombin for 30 minutes) markedly increased SF2/ASF phosphorylation
